How the values were obtained:
[1] = target: T1, cynomolgus (NHP) CD3 on cynomolgus pan-T cells (cynomolgus); test: flow cytometry on cynomolgus pan-T cells
T1 construct: whole, on cells; also called cynomolgus CD3
Experimental: (§1) The CD3-specific Fab binding arm is presumed responsible for the observed binding. A Hen Egg Lysozyme (HEL)-specific antibody was used as the negative isotype control. Binding was measured via flow cytometry at various concentrations of test articles using a fluorescently labeled secondary antibody specific for the Fc domain of IgG1. The apparent affinity calculated for each test subject based on the data is shown under each graph. […] Binding to mouse CD3 was not tested because the anti-CD3 clone, 1F3-3, incorporated into the TCE is a humanized variant of clone SP34, which was derived in mouse and is well described as not binding mouse CD3.
(§2) Adherent target cells were collected by brief TrypLE treatment while suspension cells were directly collected. Collected cells were washed once with PBS by centrifugation at 500×g for 5 minutes at room temperature and added to V-bottom 96-well plate (200,000-300,000 cells per well). To prepared Live/Dead fixable red, one vial of powder was dissolved into 50 uL of DMSO to make stock solution and then diluted 1 uL of stock Live/Dead fixable red in 1 mL of PBS to prepare the working solution. 100 uL of Live/Dead fixable red working buffer was then added to the cell in the V-bottom 96-well plate (200,000-300,000 cells per well) and incubated for 15 minutes at room temperature. […] The samples were then analyzed on Cytek flow cytometer.

[2] = target: T2, mouse ROR1 on mouse 4T1 cells (mouse, UniProt Q9Z139 30-937); test: flow cytometry on 4T1 cells expressing mouse ROR1
T2 construct: whole, on cells

[3] = target: T3, human ROR1 (Receptor Tyrosine Kinase-Like Orphan Receptor 1) on the cell surface (human, UniProt Q01973 30-937); test: flow cytometry on MDA-MB-231 variants, low ROR1 density; low cell surface density of ROR1
T3 construct: whole, on cells; engineered into B16-F10 (high density) and LS174T (low density) cells; also called B16-F10-ROR1-H; LS174T-ROR1-L
Experimental: (§3) Binding of 2A11 (black line), 5A1 (dark grey line) and VHH8 (medium grey line) were tested in TCE format 12A. The commercial ROR1 specific Ab reported to bind the ROR1-Ig domain 2A2 (light grey line), served as the positive control and anti-HEL (dotted black line) served as the negative control. To better visualize binding of each test article to the three cells lines, we plotted MFI on the y-axis for each test article for HEK-293 cells (negative control; FIG. 4I), HEK-293 cells transfected with full length human ROR1 (FIG. 4J) and HEK-293 cells transfected with the ROR1 Ig domain linked to the cell surface via the GPI linker from CD59 (FIG. 4K).
as §2

[4] = target: T4, recombinant His tagged human ROR1 (human, UniProt Q01973 30-403, limits assumed); test: BLI (Octet), FUSE protein loaded on the biosensor, His tagged ROR1 in solution
T4 construct: Analyte in the BLI assay; also called Human ROR1-His; recombinant ROR1
Experimental: (§4) As shown in FIGS. 5A-5D, the binding affinities (KD) of TCEs for ROR1 were assessed. We examined the magnitude by which several TCEs and mutants thereof bind to recombinant ROR1. Kinetic binding graphs were generated via Bio-Layer Interferometry (BLI) using an Octet system. For each TCE, the biosensor tips were coated with FUSE proteins at 15 μg/ml and probed with either recombinant His tagged ROR1 at concentrations ranging from 100 pM to 10 μM. […] The binding affinity (KD), on rate (k-on) and off rate (k-dis), are summarized for ROR1 in FIG. 5D.
(§5) Antibodies were prepared in 1×PBS with 0.02% Tween-20 with the final concentration of 15 ug/ml. Human ROR1-His or CD3e-His protein were also prepared, and serial diluted (4-fold dilution ranging from 400 nM to 0.098 nM) in 1×PBS with 0.02% Tween-20. The biosensors were pre-moistened in 200 uL of 1×PBS with 0.02% Tween-20 for 10 minutes. Meanwhile, Octet BLI system (ForteBio) was prewarmed for 30 minutes and the flow rate was set to 1000 rpm. The biosensors (Anti-hIgG Fc Capture biosensor) were soaked in 250 uL of 1×PBS with 0.02% Tween-20 for 60 seconds at 30° C. to get an initial baseline reading. After the 60-second baseline reading, the biosensors were exposed to testing antibody for 300 seconds at 30° C. for the association between antibody and the biosensors (coupling antibody with biosensor). The biosensors with antibody were then exposed to human ROR1 or CD3e in 250 uL of 1×PBS with 0.02% Tween-20 at 30° C. for 300 seconds for the association reaction between antibody and human ROR1 or CD3e (association curve). After 300-second association reaction between antibody and antigen, the biosensors with antibody and antigen were then exposed to 250 uL of 1×PBS with 0.02% Tween-20 at 30° C. for 300 seconds for the dissociation reaction between antibody and […]. The binding affinity was calculated by the built-in data fitting algorithm.

[5] = target: T3, human ROR1 (Receptor Tyrosine …); test: flow cytometry on MDA-MB-231 variants, high ROR1 density; high cell surface density of ROR1
Experimental: as §3, §2

[6] = target: T4, recombinant His tagged human ROR1; test: BLI (Octet), FUSE protein loaded on the biosensor, His tagged ROR1 in solution; column 'kdis(1/s)'
Experimental: as §4, §5

[7] = target: T3, human ROR1 (Receptor Tyrosine …); test: flow cytometry on MDA-MB-231 ROR1 low cells (about 17,000 ROR1 per cell), secondary antibody to the IgG1 Fc
Experimental: as §3
as §2, with “temperature. After the 15-minute incubation, the cells were washed twice with PBS by centrifugation at 500 g for 5 minutes at room temperature. The cells were then cultured with antibodies at different concentrations in 100 uL of Biolegend staining buffer at 4° C. for 45 minutes. After the 45-minute incubation with primary antibody, the cells were washed with PBS by centrifugation at 500 g for 5 minutes at room temperature. The cells were then cultured with PE-Cy7-conjugated mouse-anti-human IgG secondary antibody in Biolegend staining buffer at 4° C. for 45 minutes.” for “temperature.”

[8] = target: T3, human ROR1 (Receptor Tyrosine …); test: flow cytometry on MDA-MB-231 ROR1 high cells (about 500,000 ROR1 per cell), secondary antibody to the IgG1 Fc
Experimental: as §3
as §2, with “temperature. After the 15-minute incubation, the cells were washed twice with PBS by centrifugation at 500 g for 5 minutes at room temperature. The cells were then cultured with antibodies at different concentrations in 100 uL of Biolegend staining buffer at 4° C. for 45 minutes. After the 45-minute incubation with primary antibody, the cells were washed with PBS by centrifugation at 500 g for 5 minutes at room temperature. The cells were then cultured with PE-Cy7-conjugated mouse-anti-human IgG secondary antibody in Biolegend staining buffer at 4° C. for 45 minutes.” for “temperature.”

human CD3 on T cells [9] = target: T5, human CD3 on T cells (human, UniProt P07766 23-207; P09693 23-182; P04234 22-171; P20963 22-164); test: flow cytometry on Jurkat T cells, fluorescent secondary antibody to the IgG1 Fc; table row 'Binding EC50 (Kd)'
T5 construct: whole, on cells; also called human CD3 on Jurkat T cells; human CD3 on T cells isolated from human PBMC
Experimental: as §1, §2

[10] = target: T3, human ROR1 (Receptor Tyrosine …); test: flow cytometry on MDA-MB-231 ROR1 normal cells (about 35,000 ROR1 per cell), secondary antibody to the IgG1 Fc
Experimental: as §3
as §2, with “temperature. After the 15-minute incubation, the cells were washed twice with PBS by centrifugation at 500 g for 5 minutes at room temperature. The cells were then cultured with antibodies at different concentrations in 100 uL of Biolegend staining buffer at 4° C. for 45 minutes. After the 45-minute incubation with primary antibody, the cells were washed with PBS by centrifugation at 500 g for 5 minutes at room temperature. The cells were then cultured with PE-Cy7-conjugated mouse-anti-human IgG secondary antibody in Biolegend staining buffer at 4° C. for 45 minutes.” for “temperature.”

[11] = target: T3, human ROR1 (Receptor Tyrosine …); test: flow cytometry on MDA-MB-231 ROR1 super high cells (about 2,000,000 ROR1 per cell), secondary antibody to the IgG1 Fc
Experimental: as §3
as §2, with “temperature. After the 15-minute incubation, the cells were washed twice with PBS by centrifugation at 500 g for 5 minutes at room temperature. The cells were then cultured with antibodies at different concentrations in 100 uL of Biolegend staining buffer at 4° C. for 45 minutes. After the 45-minute incubation with primary antibody, the cells were washed with PBS by centrifugation at 500 g for 5 minutes at room temperature. The cells were then cultured with PE-Cy7-conjugated mouse-anti-human IgG secondary antibody in Biolegend staining buffer at 4° C. for 45 minutes.” for “temperature.”

[12] = target: T1, cynomolgus (NHP) CD3 on cynomolgus …; test: flow cytometry on cynomolgus pan T cells, fluorescent secondary antibody to the IgG1 Fc; table row 'Binding EC50 (Kd)'
Experimental: as §1, §2

human CD3 on T cells [13] = target: T5, human CD3 on T cells; test: flow cytometry on human pan T cells (T cells isolated from human PBMC), fluorescent secondary antibody to the IgG1 Fc; table row 'Binding EC50 (Kd)'
Experimental: as §1, §2

T3 sequence (Q01973 30-937): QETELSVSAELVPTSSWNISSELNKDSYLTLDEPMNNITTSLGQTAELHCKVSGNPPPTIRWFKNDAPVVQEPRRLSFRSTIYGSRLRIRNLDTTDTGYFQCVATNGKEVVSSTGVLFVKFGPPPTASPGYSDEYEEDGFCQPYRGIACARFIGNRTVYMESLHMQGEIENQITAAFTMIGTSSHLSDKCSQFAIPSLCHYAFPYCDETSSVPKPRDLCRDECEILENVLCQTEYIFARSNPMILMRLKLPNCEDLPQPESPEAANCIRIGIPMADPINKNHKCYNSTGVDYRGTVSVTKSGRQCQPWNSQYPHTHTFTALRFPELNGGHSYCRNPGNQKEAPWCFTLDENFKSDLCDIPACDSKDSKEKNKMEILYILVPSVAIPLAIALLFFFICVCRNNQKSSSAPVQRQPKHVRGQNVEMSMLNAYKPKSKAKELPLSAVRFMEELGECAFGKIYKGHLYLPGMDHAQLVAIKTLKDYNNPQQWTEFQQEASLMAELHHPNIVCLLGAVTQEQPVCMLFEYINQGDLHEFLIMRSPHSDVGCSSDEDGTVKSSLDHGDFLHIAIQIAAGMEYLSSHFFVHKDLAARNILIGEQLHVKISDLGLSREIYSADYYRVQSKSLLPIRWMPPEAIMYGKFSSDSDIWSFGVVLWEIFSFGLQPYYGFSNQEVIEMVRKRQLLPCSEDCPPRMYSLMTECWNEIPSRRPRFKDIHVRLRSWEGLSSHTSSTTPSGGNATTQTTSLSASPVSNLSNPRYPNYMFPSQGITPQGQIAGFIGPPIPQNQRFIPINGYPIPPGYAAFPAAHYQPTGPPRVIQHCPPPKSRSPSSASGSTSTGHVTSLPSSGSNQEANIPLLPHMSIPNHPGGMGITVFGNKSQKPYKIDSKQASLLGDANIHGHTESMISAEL
T4 sequence (Q01973 30-403 limits assumed): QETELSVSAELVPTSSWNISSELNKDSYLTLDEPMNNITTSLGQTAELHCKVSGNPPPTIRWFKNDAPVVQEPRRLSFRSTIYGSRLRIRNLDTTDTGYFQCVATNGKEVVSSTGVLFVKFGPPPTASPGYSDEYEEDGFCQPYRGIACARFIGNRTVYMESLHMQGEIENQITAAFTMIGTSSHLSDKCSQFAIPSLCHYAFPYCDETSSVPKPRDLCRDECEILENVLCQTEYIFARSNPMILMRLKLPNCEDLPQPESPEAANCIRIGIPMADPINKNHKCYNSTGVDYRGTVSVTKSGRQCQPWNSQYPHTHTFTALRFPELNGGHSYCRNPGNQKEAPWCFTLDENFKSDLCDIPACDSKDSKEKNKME
T5 sequence (P07766 23-207, chain 1 of 4): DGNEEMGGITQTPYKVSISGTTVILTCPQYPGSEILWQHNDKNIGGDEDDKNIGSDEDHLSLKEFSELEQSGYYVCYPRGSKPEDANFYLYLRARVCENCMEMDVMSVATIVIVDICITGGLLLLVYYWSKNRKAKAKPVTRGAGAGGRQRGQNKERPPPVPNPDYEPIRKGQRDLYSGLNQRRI
T5 sequence (P09693 23-182, chain 2 of 4): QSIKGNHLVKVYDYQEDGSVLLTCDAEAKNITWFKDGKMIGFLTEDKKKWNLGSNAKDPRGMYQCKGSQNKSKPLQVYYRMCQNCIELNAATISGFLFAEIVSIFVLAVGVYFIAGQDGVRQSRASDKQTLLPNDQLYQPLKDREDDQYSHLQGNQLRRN
T5 sequence (P04234 22-171, chain 3 of 4): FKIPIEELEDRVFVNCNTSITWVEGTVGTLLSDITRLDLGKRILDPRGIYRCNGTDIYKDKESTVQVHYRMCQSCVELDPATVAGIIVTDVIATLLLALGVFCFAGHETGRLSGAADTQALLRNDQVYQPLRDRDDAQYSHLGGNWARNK
T5 sequence (P20963 22-164, chain 4 of 4): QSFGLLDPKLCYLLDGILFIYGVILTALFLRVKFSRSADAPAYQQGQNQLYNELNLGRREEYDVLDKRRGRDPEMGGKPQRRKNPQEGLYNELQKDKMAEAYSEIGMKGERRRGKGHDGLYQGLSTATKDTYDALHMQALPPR
T2 sequence (Q9Z139 30-937): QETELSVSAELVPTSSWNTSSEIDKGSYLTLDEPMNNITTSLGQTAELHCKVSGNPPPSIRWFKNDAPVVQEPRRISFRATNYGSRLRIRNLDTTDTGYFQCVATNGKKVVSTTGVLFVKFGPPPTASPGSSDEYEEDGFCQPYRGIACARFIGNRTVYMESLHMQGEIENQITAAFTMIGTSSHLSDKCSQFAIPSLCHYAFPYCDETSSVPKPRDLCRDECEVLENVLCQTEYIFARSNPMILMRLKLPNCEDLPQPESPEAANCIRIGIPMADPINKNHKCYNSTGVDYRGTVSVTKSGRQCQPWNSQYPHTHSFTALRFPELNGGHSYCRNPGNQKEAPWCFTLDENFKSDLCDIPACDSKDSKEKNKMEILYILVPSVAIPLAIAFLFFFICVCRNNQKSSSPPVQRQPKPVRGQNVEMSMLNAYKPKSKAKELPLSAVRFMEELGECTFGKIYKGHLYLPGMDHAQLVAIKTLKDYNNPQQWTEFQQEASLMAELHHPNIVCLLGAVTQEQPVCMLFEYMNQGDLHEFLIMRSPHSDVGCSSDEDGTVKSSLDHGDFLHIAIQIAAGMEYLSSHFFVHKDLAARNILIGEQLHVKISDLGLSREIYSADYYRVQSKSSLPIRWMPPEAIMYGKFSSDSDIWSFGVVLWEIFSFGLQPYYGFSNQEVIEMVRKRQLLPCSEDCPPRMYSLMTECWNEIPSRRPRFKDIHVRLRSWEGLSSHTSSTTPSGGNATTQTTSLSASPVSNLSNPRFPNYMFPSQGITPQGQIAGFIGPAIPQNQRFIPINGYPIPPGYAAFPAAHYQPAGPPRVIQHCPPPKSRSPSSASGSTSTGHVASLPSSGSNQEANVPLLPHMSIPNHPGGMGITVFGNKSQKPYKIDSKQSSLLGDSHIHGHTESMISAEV

B1: FUSE-394 (bispecific antibody, human IgG1, lambda, L234A L235A)
chain: QVQLQESGGGSVQAGGSLKLSCTASGYTNRLKCMGWFRQAPGKEREEIATISTGTGNTYYADSVKGRFTFSQDKVKNTVYLQMNTLKPDDTGMYYCAADVRPDGTTCHYNSGGQGTQVTVSSEPKSSDKTHTCPPCPAPEAAGGPSVFLFPPKPKDTLMISRTPEVTCVVVDVSHEDPEVKFNWYVDGVEVHNAKTKPREEQYNSTYRVVSVLTVLHQDWLNGKEYKCKVSNKALPAPIEKTISKAKGQPREPQVYTLPPSREEMTKNQVSLSCAVKGFYPSDIAVEWESNGQPENNYKTTPPVLDSDGSFFLVSKLTVDKSRWQQGNVFSCSVMHEALHNRFTQKSLSLSPGK
heavy: EVQLVESGGGLVQPGGSLRLSCAASGFTFSTYAMNWVRQAPGKGLEWVARIRSKYNNYATYYADSVKDRFTISRDDSKNTLYLQMNSLRAEDTAVYYCARHGNFGNSYVSWFAYWGQGTMVTVSSASTKGPSVFPLAPSSKSTSGGTAALGCLVKDYFPEPVTVSWNSGALTSGVHTFPAVLQSSGLYSLSSVVTVPSSSLGTQTYICNVNHKPSNTKVDKKVEPKSCDKTHTCPPCPAPEAAGGPSVFLFPPKPKDTLMISRTPEVTCVVVDVSHEDPEVKFNWYVDGVEVHNAKTKPREEQYNSTYRVVSVLTVLHQDWLNGKEYKCKVSNKALPAPIEKTISKAKGQPREPQVYTLPPSREEMTKNQVSLWCLVKGFYPSDIAVEWESNGQPENNYKTTPPVLDSDGSFFLYSKLTVDKSRWQQGNVFSCSVMHEALHNHYTQKSLSLSPGK
light: QAVVTQEPSLTVSPGGTVTLTCRSSTGAVTTSNYANWVQQKPGQAPRGLIGGTNKRAPGTPARFSGSLLGGKAALTLSGVQPEDEAEYYCALWYSNLWVFGGGTKLTVLGQPKAAPSVTLFPPSSEELQANKATLVCLISDFYPGAVTVAWKADSSPVKAGVETTTPSKQSNNKYAASSYLSLTPEQWKSHRSYSCQVTHEGSTVEKTVAPTECSGGGGSGGGGSGGGGSGGGGSQVQLQESGGGSVQAGGSLKLSCTASGYTNRLKCMGWFRQAPGKEREEIATISTGTGNTYYADSVKGRFTFSQDKVKNTVYLQMNTLKPDDTGMYYCAADVRPDGTTCHYNSGGQGTQVTVSS
notes: Hole chain: 5A1-Fc; knob chain: anti-CD3 Fab heavy chain-Fc; light chain: anti-CD3 light chain-linker-5A1; also called format 13cA incorporating the 5A1 ROR1-specific VHH
fold difference in apparent binding affinity, cynomolgus against human CD3 [1]: < 2 fold | binding result [2]: no binding | EC50 [3]: ~100 nM | Kd [4]: 56.9 nM | kon [4]: 28700 M⁻¹ s⁻¹ | EC50 [5]: ~5 nM | koff [6]: 0.00163 s⁻¹ | EC50 [7]: 69.7 nM | EC50 [8]: 19.5 nM | EC50 (human CD3 on T cells [9]): 10.6 nM | EC50 [10]: 154 nM | EC50 [11]: 6.1 nM | EC50 [12]: 7.46 nM | EC50 (human CD3 on T cells [13]): 10.5 nM
